This note sets out measurements from patent publication US20240288453A1 (NATIONAL UNIVERSITY CORPORATION TOKAI NATIONAL HIGHER …, published 2024).

The assay deals with T1, mouse TfR (mouse, UniProt Q62351 89-763, limits assumed).
T1 construct: The assay and the form of the protein are not described
Nature of the assay: not described.

T1 sequence (Q62351 89-763 limits assumed): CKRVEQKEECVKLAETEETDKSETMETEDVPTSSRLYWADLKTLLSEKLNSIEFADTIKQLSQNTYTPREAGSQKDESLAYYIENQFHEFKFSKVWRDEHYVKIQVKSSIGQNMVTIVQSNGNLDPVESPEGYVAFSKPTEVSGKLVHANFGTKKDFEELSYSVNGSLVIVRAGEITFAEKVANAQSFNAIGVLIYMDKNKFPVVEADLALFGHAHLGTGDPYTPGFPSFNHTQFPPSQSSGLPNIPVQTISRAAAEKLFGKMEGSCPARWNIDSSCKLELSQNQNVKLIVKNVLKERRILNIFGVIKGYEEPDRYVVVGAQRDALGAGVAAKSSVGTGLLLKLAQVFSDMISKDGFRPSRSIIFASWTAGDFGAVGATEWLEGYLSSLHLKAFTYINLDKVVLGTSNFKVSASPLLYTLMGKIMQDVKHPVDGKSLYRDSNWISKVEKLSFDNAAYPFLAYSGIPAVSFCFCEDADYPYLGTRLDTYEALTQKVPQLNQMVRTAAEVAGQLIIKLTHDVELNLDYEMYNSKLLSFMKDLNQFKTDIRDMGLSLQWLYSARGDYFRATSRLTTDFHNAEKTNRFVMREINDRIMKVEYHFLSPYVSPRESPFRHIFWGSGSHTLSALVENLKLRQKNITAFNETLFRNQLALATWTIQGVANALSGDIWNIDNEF

B1: TfR436 antibody (antibody, V domains shown)
VH: DVQLVQSGGGVVQPGRSLRLSCAASGFPFKSYGMHWVRQAPGKGLEWVAVISYDGSNKYYADSVKGRFTISRDNSKNTLYLQMNSLRGEDTAVYYCARDSNFWSGYYSPVDVWGQGTTVTVSS
VL: NFMLTQPHSVSESPGKTVTISCTRSSGSIASNSVQWYQQRPGSAPITVIYEDTQRPSGVPDRFSGSIDSSSNSASLTISGLQTEDEADYYCQSYDSAYHWVFGGGTKLAVL
notes: The antibody is the one of paragraphs 0090 and 0091 of WO2014/073641 and was detected with an anti-human IgG Fc gamma secondary antibody; also called parent antibody
Consider B1, for which the binding result is “no binding”.
